Experimental data published in publication PMC4142212 (Nature, 2014).

What was measured:
[1] = target: T1, ZMYND11 PBP (PHD-Bromo-PWWP, aa74-371) (Mus musculus, UniProt Q8R5C8); test: ITC, ZMYND11 PBP domains; type: binding; conditions: n value fixed at 1
T1 sequence (Q8R5C8 74-371): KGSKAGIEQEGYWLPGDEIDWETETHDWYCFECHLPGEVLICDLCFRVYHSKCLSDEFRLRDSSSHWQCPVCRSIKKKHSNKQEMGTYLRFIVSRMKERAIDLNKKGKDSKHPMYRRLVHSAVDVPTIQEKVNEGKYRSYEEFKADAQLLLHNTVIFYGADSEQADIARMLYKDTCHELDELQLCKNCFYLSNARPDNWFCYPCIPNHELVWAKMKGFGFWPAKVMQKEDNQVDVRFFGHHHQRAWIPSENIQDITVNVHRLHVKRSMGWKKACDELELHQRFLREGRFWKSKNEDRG

[2] = target: T2, ZMYND11 BP (Bromo-PWWP, 154-371) (Mus musculus, UniProt Q8R5C8); test: ITC, ZMYND11 BP domains; type: binding; conditions: n value fixed at 1
T2 sequence (Q8R5C8 154-371): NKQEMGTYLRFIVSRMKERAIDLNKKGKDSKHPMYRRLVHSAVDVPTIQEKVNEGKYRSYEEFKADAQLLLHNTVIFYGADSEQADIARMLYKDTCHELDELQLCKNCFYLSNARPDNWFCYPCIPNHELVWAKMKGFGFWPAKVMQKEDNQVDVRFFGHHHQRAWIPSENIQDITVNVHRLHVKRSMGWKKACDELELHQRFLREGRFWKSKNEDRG

[3] = system: ZMYND11 PBP; test: Histone peptide pull-down, GST-ZMYND11 PBP; type: binding, mouse; conditions: mild buffer: 50 mM Tris-HCl 7.5, 200 mM NaCl, 0.05% NP-40, 1 mM PMSF

Titration c-value [1]: 0.16 | Titration c-value [2]: 0.15 | peptide pull-down binding, mild buffer [3]: weak binding
Substance: H3.1K36me3: synthetic histone H3.1_19-42K36me3 peptide
